Experimental data from patent publication US20220073643A1 (NANJING GENSCRIPT BIOTECH, published 2022).
Where a chain is given by its changes, count along the chain named.

B1: 392C2F10 (antibody, V domains shown)
VH: EVQLQQSGPELVKPGASMKISCKASGYSFTGYTMNWVKQSLGKNLEWIGLINPFNGGTTYNQKFKGKATLTVDKSSSTAYMELLSLTSDDSAVYYCTRGDYWGQGTTLTVSS
VL: DIVMTQSPSSLTVTAGEKVTMSCKSSQSLLNSGNQKNYLTWYQQKPGQPPKLLIYWASTRESGVPDRFAGSGSGTDFTLTISSVQAEDLAVYYCQSDYSYPTFGAGTKLELK
notes: mouse hybridoma mAb
B2: 406G3C4 (antibody, V domains shown)
VH: EIQLQQSGPELMKPGASVRISCKASGYSFISYYIYWVKQSHGKGLEWIGYIDPFNGNTNYNQKFKGKATLTVDRSSSTAYIHLNSLTSEDSAVYYCAIVNGYGRGAMDYWGQGTSVTVSS
VL: QIVLTQSPAIMSASPGEKVTMTCSASSSISYMHWYQQKSGTSPKRWIYDTSKLASGVPARFSGSGSGTSYSLTISSMEAEDAATYYCQQWSSNPLTFGDGTKLELK
notes: mouse hybridoma mAb
B3: 271B1B6 (antibody, V domains shown)
VH: QAYLQQSGAELVRSGASVKMSCKASGYTFTNYNIHWVKQTPGQGLEWIGYIYPGNGGNYYNQKFKGKATLTADTSSITAYMQISSLTSEDSAVYFCARDYYGNSFAYWGQGTLVTVSA
VL: DIVMTQSPSSLTVTAGEKVTMNCKSSQSLLNSGNQKNYLTWYQQKPGQPPKLLIYWASTRESGVPDRFTGSGSGTDFTLTISSVQAEDLAIYYCQNDYYYPLTFGAGTKLELK
notes: mouse hybridoma mAb
B4: 265E6G2 (antibody, V domains shown)
VH: B3 VH with N31S, I34M, N58T, Y59N, I77S
VL: B3 VL with I2L, N22S, S83N, V84I, I91V, Y99S, T103P, K113R
notes: mouse hybridoma mAb
B5: 391F1G2 (antibody, V domains shown)
VH: DVQLVESGGGLVQPGGSRKLSCAASGFTFSSFGMHWVRQAPEKGLEWVAYISSGSSPIYYADTVKGRFTISRDNPKNTLFLQMTSLRSEDTAMYFCARIYYGNSFAYWGQGTLVTVSA
VL: B3 VL with T20A, N22S, S28T, I54L, I91V, D97A, A106S
notes: mouse hybridoma mAb
B6: 392A11C8 (antibody, V domains shown)
VH: B5 VH with S31G, V37I, A40T, S56R, I99F, A106D, Y107H
VL: B3 VL with S10F, N22S, K24R, I91L, D97A, Y99S, Y100F
notes: mouse hybridoma mAb
B7: 279E8B8 (antibody, V domains shown)
VH: QAYLQQSGAELVRSGASVKISCKASGYTFASHNMHWVKQTPGQGLEWIGYIYPGNGGTKYNQKFTGKATLSADTSSSTAYLQISSLTSEDSAVYFCARDYFGNSFVYWGQGTLVTVSA
VL: B3 VL with V13E, T14K, T20S, N22R, E87D, I91V, Y99M, L102F
notes: mouse hybridoma mAb
B8: 286C7F11 (antibody, V domains shown)
VH: QVQLKESGPGLVAPSQSLSITCTVSGFSLTDYGVSWIRQPPGKGLEWLGVIWNRGNTYYNSALKSRLSISKDNSKSQVFLRMNSLQTDDTAMYYCAKHDFLRFLDYWGQGTTLTVSS
VL: B3 VL with I2V, N22S, L52I, T78S, S82T, I91V, Q95L
notes: mouse hybridoma mAb
B9: 410H6H3 (antibody, V domains shown)
VH: B5 VH with Q3L, F32S, S56N, P57T, V64L, F95Y, A106V
VL: B3 VL with T20I, N22S, L52M, T69R, I91V, D97N, A106T, E111A
notes: mouse hybridoma mAb
B10: 406F11G8 (antibody, V domains shown)
VH: B5 VH with P75S
VL: B3 VL with T20A, N22S, S28T, I91V, D97A, A106S
notes: mouse hybridoma mAb
B11: 419A10D4 (antibody, V domains shown)
VH: B5 VH with S31G, V37I, A40T, S56R, I99F, A106D, Y107H
VL: B3 VL with S10F, N22S, K36R, I81V, I91L, D97A, Y99S, Y100F
notes: mouse hybridoma mAb
B12: 421H4G3 (antibody, V domains shown)
VH: DVQLVESGGGLVQPGGSRKLSCAASGFSFSGFGLHWIRQTPEKGLEWVAYISSGSRPIYYADTVKGRFTISRDNPKNTLFLQMTSLRSEDTAMYFCARFYFGNSFDHWGQGTLVTVST
VL: B3 VL with S10F, N22S, K24R, K36R, S82N, I91L, D97A, Y99S, Y100F
notes: mouse hybridoma mAb
B13: 407A8G10 (antibody, V domains shown)
VH: B12 VH with S28T, L34M, F101Y, T118A
VL: B3 VL with S10F, N22S, K24R, K36R, T78A, I91L, D97A, Y99S, Y100F
notes: mouse hybridoma mAb
B14: 419A5F3 (antibody, V domains shown)
VH: B12 VH with S28T, L34M, G54D, A97G, F101Y, T118A
VL: DIVMTQSPSFLTVTAGEKVTLSCRSSQSLLNSGNQRNYLTWYQQKPGQPPKLLIYWASTRESGVPDRFTGSGSGTDFTLTISSVQAEDRALYYCQNAYSFPLTFGTGTKLELR
notes: mouse hybridoma mAb
B15: 426D9F6 (antibody, V domains shown)
VH: B12 VH with S28T, L34M, F101Y, T118A
VL: B14 VL with L21M, R24K, I81V, R89L, T106A, R113K
notes: mouse hybridoma mAb
B16: 395B3C11 (antibody, V domains shown)
VH: B12 VH with S28T, L34M, K65Q, F101Y, T118S
VL: B14 VL with L21M, R24K, R36K, R89L, T106A, R113K
notes: mouse hybridoma mAb
B17: 410D9G2 (antibody, V domains shown)
VH: B12 VH with S28T, L34M, K65Q, F101Y, T118S
VL: B14 VL with L21M, R24K, R36K, R89L, T106A, R113K
notes: mouse hybridoma mAb
B18: 420D5H5 (antibody, V domains shown)
VH: B12 VH with S28T, F29L, L34M, A61V, K65E, F101Y, T118S
VL: B14 VL with L21M, R24K, R36K, S82R, S83G, R89L, T106A, R113K
notes: mouse hybridoma mAb
B19: 425C6D3 (antibody, V domains shown)
VH: B12 VH with S28T, L34M, K65Q, F101Y, T118S
VL: B14 VL with L21M, R24K, R36K, R89L, T106A, R113K
notes: mouse hybridoma mAb
B20: 394C2G5 (antibody, V domains shown)
VH: B12 VH with S28T, L34M, I51V, F101Y, T118A
VL: B14 VL with L21M, R24K, R36K, S82N, S83N, R89L, T106A, R113T
notes: mouse hybridoma mAb
B21: 407E11H8 (antibody, V domains shown)
VH: B12 VH with S28T, G31D, L34M, A97V, T118A
VL: B14 VL with L21M, S22T, S28N, Q35L, R36K, Y55S, A86P, R89L, T106A, R113K
notes: mouse hybridoma mAb
B22: 420F12G8 (antibody, V domains shown)
VH: B12 VH with S28A, L34M, A97V, F101Y, T118A
VL: B14 VL with L21M, S22T, S28N, R36K, Y55S, A86P, R89L, L102F, T106A, R113K
notes: mouse hybridoma mAb
B23: 414H6G2 (antibody, V domains shown)
VH: B12 VH with S28T, L34M, P41A, K65Q, F101Y, T118A
VL: B14 VL with L21M, R24K, R36K, R89L, T106A, R113K
notes: mouse hybridoma mAb
B24: 409D1A7 (antibody, V domains shown)
VH: B12 VH with S28T, L34M, Q82H, F101Y, T118A
VL: B14 VL with L21M, S22N, R24K, R89L, T106A, R113N
notes: mouse hybridoma mAb
B25: 411G3E10 (antibody, V domains shown)
VH: B12 VH with S28T, L34M, F101Y, T118A
VL: B14 VL with L21M, S22N, R36K, R89L, T106A, R113K
notes: mouse hybridoma mAb
B26: 391H11H3 (antibody, V domains shown)
VH: B12 VH with S28T, L34M, K65Q, F101Y, T118S
VL: B14 VL with L21M, R24K, R36K, R89L, T106A, R113K
notes: mouse hybridoma mAb
B27: 426H6E11 (antibody, V domains shown)
VH: B12 VH with S28T, L34M, K65Q, F101Y, T118S
VL: B14 VL with S7F, L21M, R24K, S28T, R36K, R89L, T106A, K109N, R113K
notes: mouse hybridoma mAb
B28: 430B3F1 (antibody, V domains shown)
VH: B12 VH with S28T, L34M, S55G, K65Q, F101Y, V116I, T118S
VL: B14 VL with L21M, R24K, R36K, R89L, T106A, R113K
notes: mouse hybridoma mAb
B29: 411B4G4 (antibody, V domains shown)
VH: B12 VH with S28T, F101Y, T118A
VL: B14 VL with L21M, R89L, T106A, R113K
notes: mouse hybridoma mAb
B30: 422E8F9 (antibody, V domains shown)
VH: B12 VH with S28T, L34M, K65Q, F101Y, T118S
VL: B14 VL with L21M, R24K, R36K, R89L, T106A, R113K
notes: mouse hybridoma mAb
B31: 411A6E3 (antibody, V domains shown)
VH: B12 VH with S28T, G31D, L34M, A97V, T118A
VL: B14 VL with L21M, S22T, S28N, Q35L, R36K, Y55S, A86P, R89L, T106A, R113K
notes: mouse hybridoma mAb
B32: 409G10G6 (antibody, V domains shown)
VH: B12 VH with S28T, L34M, G54D, A97G, F101Y, T118A
VL: B14 VL
notes: mouse hybridoma mAb
B33: 406E1H7 (antibody, V domains shown)
VH: B12 VH with S28T, L34M, K65Q, F101Y, T118S
VL: B14 VL with L21M, R24K, R36K, R89L, T106A, R113K
notes: mouse hybridoma mAb
B34: 411G12G1 (antibody, V domains shown)
VH: B12 VH with S28T, L34M, T40A, F101Y, T118A
VL: B3 VL with S10F, N22S, I91V, Y99S, Y100F
notes: mouse hybridoma mAb
B35: 413C12F8 (antibody, V domains shown)
VH: B12 VH with S28T, L34V, S52G, F101Y, T118A
VL: B14 VL with L21M, S22N, R36K, K45R, R89L, T106A, R113K
notes: mouse hybridoma mAb
B36: 420G10G3 (antibody, V domains shown)
VH: B12 VH with S28T, L34M, P41A, K65Q, F101Y, T118A
VL: B14 VL with L21M, R24K, R36K, R89L, T106A, R113K
notes: mouse hybridoma mAb
B37: 425B3D5 (antibody, V domains shown)
VH: B12 VH with S28T, L34M, K65Q, F101Y, T118S
VL: B14 VL with L21M, R24K, R36K, R89L, T106A, R113K
notes: mouse hybridoma mAb
B38: 407D8G1 (antibody, V domains shown)
VH: B12 VH with S28T, L34M, K65Q, F101Y, T118S
VL: B14 VL with L21M, R24K, R36K, R89L, T106A, R113K
notes: mouse hybridoma mAb

These binders were tested against T1, human Claudin18.2 (human) (assay: cell ELISA, Claudin18.2-expressing HEK293T cells).
T1 construct: also called CLDN18.2
Summary of the method: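 Claudin18.2-expressing HEK293T stable cells (1.5×10⁶ cells/ml in 5% skim milk/PBS blocking buffer) were incubated 1 h at room temperature in plates pre-blocked overnight at 4° C. EC₅₀ was derived by four-parameter curve fit.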

Binder	EC50 [nM]
B1	350
B2	12.6
B3	~0.429
B4	~14
B5	~2.66
B6	1.21
B7	~9.62
B8	~0.0831
B9	45.5
B10	1.83
B11	2.33
B12	2.47
B13	2.14
B14	2.61
B15	2.14
B16	3.58
B17	4.33
B18	7.03
B19	1.92

Binder	EC50 [nM]
B20	2.81
B21	1.24
B22	2.61
B23	12
B24	2.05
B25	2.45
B26	2.97
B27	1.78
B28	2.56
B29	2.85
B30	1.88
B31	~2.6
B32	2.19
B33	4.33
B34	3.47
B35	3.55
B36	2.39
B37	2.61
B38	2.38
